One series concerns the target ΔN–CEACAM1-3L–YFP (rat) (UniProt P16573). The experiment in a line: cross-linking.
The series “cross-linking” deals with the molecule itself. The experiment in a line: cross-linking.

“ΔN–CEACAM1-3L–YFP (from UniProt P16573 35-519) (domain or fragment)” showed a stoichiometry N with ΔN–CEACAM1-3L–YFP (rat) of 2.

B1: CEACAM1-4ΔCyto–YFP (domain or fragment, rat, UniProt P16573 35-448, looked up)
chain: QVTVDAVPPNVVEEKSVLLLAHNLPQEFQVFYWYKGTTLNPDSEIARYIRSDNMSKTGPAYSGRETIYSNGSLFFQNVNKTDERAYTLSVFDQQFNPIQTSVQFRVYPALQKPNVTGNNSNPMEGEPFVSLMCEPYTNNTSYLWSRNGESLSEGDRVTFSEGNRTLTLLNVRRTDKGYYECEARNPATFNRSDPFNLDVIYGPDAPVISPPDIYLHQGSNLNLSCHADSNPPAQYFWLINEKLQTSSQELFISNITTNNSGTYACFVNNTVTGLSRTTVKNITVFEPVTQPSIQITNTTVKELGSVTLTCFSKDTGVSVRWLFNSQSLQLTDRMTLSQDNSTLRIDPIKREDAGDYQCEISNPVSFRISHPIKLDVIPDPTQGNSGLSEGAIAGIVIGSVAGVALIAALAYFLY
Take B1: in the series “cross-linking”, the “stoichiometry N” value worked out at 2.
